Reference: the RNAGym collection of RNA variant scans (doi:10.7554/elife.90254)

B1: OR4K15 (parent)
chain: GUUAACGGUCAUAGGCCAUGGAAACUAGGAGCACCAUUUCGCUGCCAGUGAAGAAAUGAACAAAGAAAAUCUGGGCCAGGCAGGCAUCAAAAGAAAUAGUCUUGCGCUCAACCAGAAAGUCUGUAAUCAUUUUAAGGGUA

Variants of: B1
Assay: self-cleavage, relative activity (ratio to wild type); higher = more cleavage; in vitro, sequencing; the parent is a self-cleaving ribozyme
With GUUAACGGUCAUAGGCCAUGGUAACUAGGAGCACCAUUUCGCUGCCAGCGAAGAAAUGAACAAAGAAAAUCUGGGCCAGGCAGGCAUCAAAAGAAAUAGUCUUGCGCUCAACCAGAAAGUCUGUAAUCAUUUUAAGGGUA [A22U U49C] the self-cleavage was 0.77.
Variant GUUAACGGUCAUAGGCCAUGGUAACUAGGAGCACCAUUUCGCUGCCAGUGAAGAAAUGAACAAAGAAAAUCUGGGCCAGGCAGGCAUCAAAAGAAAUAGUCCUGCGCUCAACCAGAAAGUCUGUAAUCAUUUUAAGGGUA [A22U U102C] has a self-cleavage of 2.02.
For GUUAACGGUCAUAGGCCAUGGUAACUAGGAGCACCAUUUCGCUGCCGGUGAAGAAAUGAACAAAGAAAAUCUGGGCCAGGCAGGCAUCAAAAGAAAUAGUCUUGCGCUCAACCAGAAAGUCUGUAAUCAUUUUAAGGGUA [A22U A47G], the self-cleavage was 1.13.
GUUAACGGUCAUAGGCCAUGGUAACUAGGAGCACCAUUUCGCUGCCAGUGAAGAAAUGAACAAAGAAAAUCUGGGCCAGGCAGGCAUCAAAAGUAAUAGUCUUGCGCUCAACCAGAAAGUCUGUAAUCAUUUUAAGGGUA [A22U A94U] gave a self-cleavage of 1.75.
Work on GUUAACGGUCAUAGGCCAUGGUAACUAGGAGCACCAUUUCGCUGCCAGUGAAGAAAUGAACAAAGAAAAUCUGGGCCAGGCAGGCAUCAAAAGAAAUAAUCUUGCGCUCAACCAGAAAGUCUGUAAUCAUUUUAAGGGUA [A22U G99A] yielded a self-cleavage of 1.39.
Variant GUUAACGGUCAUAGGCCAUGGUAACUAGAAGCACCAUUUCGCUGCCAGUGAAGAAAUGAACAAAGAAAAUCUGGGCCAGGCAGGCAUCAAAAGAAAUAGUCUUGCGCUCAACCAGAAAGUCUGUAAUCAUUUUAAGGGUA [A22U G29A] has a self-cleavage of 0.84.
For GUUAACGGUCAUAGGCCAUGGUAACUAGGAGCACCAUUUCGCUGCCAGUGAAGAAAUGAACAAAGAAAAUCUGGGCCAGGCAGGCAUCAAAAGAAAUAGUCUUGCGCUCAACCAGAAAGUUUGUAAUCAUUUUAAGGGUA [A22U C121U], the self-cleavage was 0.
Variant GUUAACGGUCAUAGGCCAUGGUAACCAGGAGCACCAUUUCGCUGCCAGUGAAGAAAUGAACAAAGAAAAUCUGGGCCAGGCAGGCAUCAAAAGAAAUAGUCUUGCGCUCAACCAGAAAGUCUGUAAUCAUUUUAAGGGUA [A22U U26C] has a self-cleavage of 0.97.
GUUAACGGUCAUAGGCCAUGGUAACUAGGAGCACCAUUUCGCUGCCAGUGUAGAAAUGAACAAAGAAAAUCUGGGCCAGGCAGGCAUCAAAAGAAAUAGUCUUGCGCUCAACCAGAAAGUCUGUAAUCAUUUUAAGGGUA [A22U A51U] gave a self-cleavage of 1.14.
GUUAACGGUCAUAGGCCAUGGUAACUAGGAGCACCAUUUCGCUGCCAGUGAAGAAAGGAACAAAGAAAAUCUGGGCCAGGCAGGCAUCAAAAGAAAUAGUCUUGCGCUCAACCAGAAAGUCUGUAAUCAUUUUAAGGGUA [A22U U57G] gave a self-cleavage of 1.17.
For GUUAACGGUCAUAGGCCAUGGUAACUAGGAGCACCAUUUCGCUGCCAGUGAAGUAAUGAACAAAGAAAAUCUGGGCCAGGCAGGCAUCAAAAGAAAUAGUCUUGCGCUCAACCAGAAAGUCUGUAAUCAUUUUAAGGGUA [A22U A54U], the self-cleavage was 1.56.
In the case of GUUAACGGUCAUAGGCCAUGGUAACUAGGAGCACCAUUUCGCUGCCAGUGAAGAAAUGAACAAAGAAAAUCUGGGCCAGGCAGGCAUCAAAAGAAAUAGUCUCGCGCUCAACCAGAAAGUCUGUAAUCAUUUUAAGGGUA [A22U U103C], the self-cleavage is reported as 1.66.
GUUAACGGUCAUAGGCCAUGGUAACUAGGAGCACCAUUUCGCUGCCAGUGAAGAAAUGAACAAAGAAAAUCUGGGACAGGCAGGCAUCAAAAGAAAUAGUCUUGCGCUCAACCAGAAAGUCUGUAAUCAUUUUAAGGGUA [A22U C76A] showed a self-cleavage of 0.16.
GUUAACGGUCAUAGGCCAUGGUAACUAGGAGCACCAUUUCGCUGCCAGUGAAGAAAUGAACAAAGAAAAUCUGGGCCAGGCAGGCAUCAAAAGAAAUAGUCUUGCGCUCAACCAGAAAGUCUGUGAUCAUUUUAAGGGUA [A22U A125G] gave a self-cleavage of 0.52.
GUUAACGGUCAUAGGCCAUGGUAACUAGGAGCACCAUUUCGCUGCCAGUGAAGAAAUGAACAAGGAAAAUCUGGGCCAGGCAGGCAUCAAAAGAAAUAGUCUUGCGCUCAACCAGAAAGUCUGUAAUCAUUUUAAGGGUA [A22U A64G] gave a self-cleavage of 1.62.
With GUUAACGGUCAUAGGCCAUGGUAACUAGGAGCACCAUUUCGCUGCCAGUGAAGAAAUGAACAAAGAAAAUCUGGGCCAGGCUGGCAUCAAAAGAAAUAGUCUUGCGCUCAACCAGAAAGUCUGUAAUCAUUUUAAGGGUA [A22U A82U] the self-cleavage was 0.32.
With GUUAACGGUCAUAGGCCAUGGUAACUAGGAGCACCAUUUCGCUGCCAGUGAAGAGAUGAACAAAGAAAAUCUGGGCCAGGCAGGCAUCAAAAGAAAUAGUCUUGCGCUCAACCAGAAAGUCUGUAAUCAUUUUAAGGGUA [A22U A55G] the self-cleavage was 0.73.
GUUAACGGUCAUAGGCCAUGGUAACUAGGAGCACCACUUCGCUGCCAGUGAAGAAAUGAACAAAGAAAAUCUGGGCCAGGCAGGCAUCAAAAGAAAUAGUCUUGCGCUCAACCAGAAAGUCUGUAAUCAUUUUAAGGGUA [A22U U37C] gave a self-cleavage of 0.85.
In the case of GUUAACGGUCAUAGGCCAUGGUAACUAGGAGCACCAUUUCGCUGCCAGUGAAGAAAUGAACAAAGAAAAUCUGGGCCAGGCAGGCAUCAAAGGAAAUAGUCUUGCGCUCAACCAGAAAGUCUGUAAUCAUUUUAAGGGUA [A22U A92G], the self-cleavage is reported as 1.41.
GUUAACGGUCAUAGGCCAUGGUAACUAGGAGCACCAUUUCGCUGCCAGUGAAGAAAUGAACAAAGAAAAUCUGGGCCAGGCAGGCAUCAAAUGAAAUAGUCUUGCGCUCAACCAGAAAGUCUGUAAUCAUUUUAAGGGUA [A22U A92U] showed a self-cleavage of 2.17.
With GUUAACGGUCAUAGGCCAUGGUAACUAGGAGCGCCAUUUCGCUGCCAGUGAAGAAAUGAACAAAGAAAAUCUGGGCCAGGCAGGCAUCAAAAGAAAUAGUCUUGCGCUCAACCAGAAAGUCUGUAAUCAUUUUAAGGGUA [A22U A33G] the self-cleavage was 0.56.
Variant GUUAACGGUCAUAGGCCAUGGUAACUAGGAGCACCAUUUCGCUGCCAGUGAAGAAAUGGACAAAGAAAAUCUGGGCCAGGCAGGCAUCAAAAGAAAUAGUCUUGCGCUCAACCAGAAAGUCUGUAAUCAUUUUAAGGGUA [A22U A59G] has a self-cleavage of 1.48.
Work on GUUAACGGUCAUAGGCCAUGGUAACUAGGAGCACCAUUUCGCUGCCAGUGAAGAAAUGUACAAAGAAAAUCUGGGCCAGGCAGGCAUCAAAAGAAAUAGUCUUGCGCUCAACCAGAAAGUCUGUAAUCAUUUUAAGGGUA [A22U A59U] yielded a self-cleavage of 1.71.
Work on GUUAACGGUCAUAGGCCAUGGUAACUAGGAGCACCAUUUCGCUGCCAGUGAAGAAAUGAACGAAGAAAAUCUGGGCCAGGCAGGCAUCAAAAGAAAUAGUCUUGCGCUCAACCAGAAAGUCUGUAAUCAUUUUAAGGGUA [A22U A62G] yielded a self-cleavage of 1.98.
Work on GUUAACGGUCAUAGGCCAUGGUAACUAGGAGCACCAUUUCGCUGCCAGUGAAGAAAUGAACAAAGAAAAUCUGGGCCAGGCAGGCAUCAAAAGAAAUAGUCUUGCGCUCGACCAGAAAGUCUGUAAUCAUUUUAAGGGUA [A22U A110G] yielded a self-cleavage of 0.12.
GUUAACGGUCAUAGGCCAUGGUAACUAGGAGCACCAUUUCGCUGCCAGUGAAGAAAUGAACAAAGAAAACCUGGGCCAGGCAGGCAUCAAAAGAAAUAGUCUUGCGCUCAACCAGAAAGUCUGUAAUCAUUUUAAGGGUA [A22U U70C] showed a self-cleavage of 0.9.
With GUUAACGGUCAUAGGCCAUGGUAACUAGGAGCACCAUUUCGCUGCCAGUGAAGAAAUGAACAAAGAAAAUCUGGGCCAGGCAAGCAUCAAAAGAAAUAGUCUUGCGCUCAACCAGAAAGUCUGUAAUCAUUUUAAGGGUA [A22U G83A] the self-cleavage was 0.93.
GUUAACGGUCAUAGGCCAUGGUAACUAGGAGCACCAUUUCGCUGCCAGUGAAGAAAUGAACAAAGAAAGUCUGGGCCAGGCAGGCAUCAAAAGAAAUAGUCUUGCGCUCAACCAGAAAGUCUGUAAUCAUUUUAAGGGUA [A22U A69G] gave a self-cleavage of 1.
For GUUAACGGUCAUAGGCCAUGGUAACUAGGAGCACCAUUUCGCUGCCAGUGAAGAAAUGAACAAAGAAAAUCUGGGCCAGGCAGGCAUCAAAAGAAAUAGUCUUGCGCUCAACCAGAAAGUCUGUAAUCAUUUUAAGGGUG [A22U A140G], the self-cleavage was 1.41.
GUUAACGGUCAUAGGCCAUGGUAACUAGGAGCACCAUUUCGCUACCAGUGAAGAAAUGAACAAAGAAAAUCUGGGCCAGGCAGGCAUCAAAAGAAAUAGUCUUGCGCUCAACCAGAAAGUCUGUAAUCAUUUUAAGGGUA [A22U G44A] showed a self-cleavage of 1.87.
Work on GUUAACGGUCAUAGGCCAUGGUAACUAGGAGCACCAUUUCGCUGCCAGUGAAGAAAUGAACAAAGAAAAUCUGGGCCAGGCAGGCAUCAAAAGAAAUAGUCUUGCGCUCAACCAGAAUGUCUGUAAUCAUUUUAAGGGUA [A22U A118U] yielded a self-cleavage of 0.64.
For GUUAACGGUCAUAGGCCAUGGUAACUAGGAGCACCAUUUCGCUGCCAGUGAAGAAAUGAACAAAGAAAAUCUGGGCCAGGCAGGCAUCAAAAGAAAUAGUCUUGCGCUCAACCAGAAGGUCUGUAAUCAUUUUAAGGGUA [A22U A118G], the self-cleavage was 1.13.
Work on GUUAACGGUCAUAGGCCAUGGUAACUAGGAGCACCAUUUCGCUGCCAGUGAAGAAAUGAACAAAGAAAAUCUGGGCCAGGCAGGCAUCAAAAGAAAUAGUCUUGUGCUCAACCAGAAAGUCUGUAAUCAUUUUAAGGGUA [A22U C105U] yielded a self-cleavage of 0.18.
Work on GUUAACGGUCAUAGGCCAUGGUAACUAGGAGCACCAUUUCGCUGCCAGUGAAGAAAUGAACAAAGAAAAUCUGGGCCAGGCAGGCAUCUAAAGAAAUAGUCUUGCGCUCAACCAGAAAGUCUGUAAUCAUUUUAAGGGUA [A22U A89U] yielded a self-cleavage of 1.91.
With GUUAACGGUCAUAGGCCAUGGUAACUAGGAGCACCAUUUCGCUGCCAGUGAAGAAAUGAACAAAUAAAAUCUGGGCCAGGCAGGCAUCAAAAGAAAUAGUCUUGCGCUCAACCAGAAAGUCUGUAAUCAUUUUAAGGGUA [A22U G65U] the self-cleavage was 0.33.
Work on GUUAACGGUCAUAGGCCAUGGUAACUAGGAGCACCAUUUCGCUGCCAGUGAAGAAAUGAACAAAGAAAAUCUGGGCCAGGCAGGCAUCAAAAGAAAUAGUCUUGCGCUCAACCAGAAAGUCUGUAAUCAUUUUGAGGGUA [A22U A134G] yielded a self-cleavage of 1.35.
With GUUAACGGUCAUAGGCCAUGGUAACUAGGAGCACCAUUUCGCUGCCAGUGAAGAAAUGAACAAAGAAAAUCUGGGCCAGGCAGGCAUCAAAAGAAAUAGUCUUGCGCUCAACCGGAAAGUCUGUAAUCAUUUUAAGGGUA [A22U A114G] the self-cleavage was 1.09.
GUUAACGGUCAUAGGCCAUGGUAACUAGGAGCACCAUUACGCUGCCAGUGAAGAAAUGAACAAAGAAAAUCUGGGCCAGGCAGGCAUCAAAAGAAAUAGUCUUGCGCUCAACCAGAAAGUCUGUAAUCAUUUUAAGGGUA [A22U U39A] showed a self-cleavage of 2.33.
For GUUAACGGUCAUAGGCCAUGGUAACUAGGAGCACCAUUUCGCUGCCAGUGAGGAAAUGAACAAAGAAAAUCUGGGCCAGGCAGGCAUCAAAAGAAAUAGUCUUGCGCUCAACCAGAAAGUCUGUAAUCAUUUUAAGGGUA [A22U A52G], the self-cleavage was 1.63.
With GUUAACGGUCAUAGGCCAUGGUAACUAGGAGCACCAUUUCGCUGCCAGUGAAGAAAUGAACAAAGAAAAUCUGAGCCAGGCAGGCAUCAAAAGAAAUAGUCUUGCGCUCAACCAGAAAGUCUGUAAUCAUUUUAAGGGUA [A22U G74A] the self-cleavage was 0.1.
Variant GUUAACGGUCAUAGGCCAUGGUAACUAGGAGCACCAUUUCGCUGCCAGUGAAGAAAUGAACAAAGAAAAUCUGUGCCAGGCAGGCAUCAAAAGAAAUAGUCUUGCGCUCAACCAGAAAGUCUGUAAUCAUUUUAAGGGUA [A22U G74U] has a self-cleavage of 0.27.
